Measurements as given in patent US9574016B2, “Complex of bi-specific antibody and digoxigenin conjugated to a therapeutic or diagnostic agent” (Hoffmann-La Roche Inc., priority 2009, dated 2017).
Where “and” joins values, the source holds several entries; their conditions need not be identical. Equal entries are not always repeated. Non-standard residues stand in square brackets, D forms with d. Residues, ends and D or L forms follow the SMILES beside them. No end group written: not given here. PEG3 = NCCOCCOCCOCCC(=O)O

How the values were obtained:
[1] = Excitation and emission spectra; format: physicochemical
Description: To evaluate whether digoxygenation of Cy5 alters its fluorescence features, we compared the excitation and emission spectra of Cy5 and compared it with the spectra of the newly generated Dig-Cy5 and with Dig-Cy5 within a complex with bispecific antibodies. […] We conclude that Dig-Cy5 and —complexes can be applied for antibody-mediated targeting and in vivo imaging.

[2] = system: CD22 positive Raji and Ramos cells; test: FACS analysis with <CD22>-<DIG> and DIG-Cy5; format: cell-based; conditions: DIG-Cy5 66.4 nM
Protocol: For these analyses we used CD22 positive Raji and Ramos cells and the bispecific <CD22>-<DIG> antibody. 3×10^5 cells per well of a 96-well-plate were incubated with 5 ng/ml of the <CD22>-<DIG> antibody in FACS buffer (PBS containing 5% FCS). After washing the cells were incubated with DIG-Cy5 in a final concentration of 66.4 nM. After another washing step cells were analysed with the FACS canto II (BD Biosciences).

[3] = system: IGF1R expressing tumors (H322M cells); test: NIRF tumor imaging with Dig-Cy5 complexes, H322M xenograft; format: in vivo, mice; conditions: 30 min, i.v.
Protocol: To analyze if the specific antigen binding functionality of the antibody-complexes can be utilized to specifically deliver imaging reagents to tumor cells, we performed Near Infrared Fluorescence Imaging Studies (NIRF) in vivo. […] These xenografts were either expressing the antigen Her2 (KPL4 cells) or the antigen IGF1R (H322M cells). Subsequently NIRF imaging was performed by using the Maestro system from CRI. Animals were placed in a measuring chamber and the fluorescence was measured over a defined spectral wavelength array, depending on the dye. Spectral information of each pixel of the obtained image was analyzed by a special software which allows to separate different pre-defined spectra, e.g. autoflourescence and the signal of the dye. Theses separated specific signals were quantified by the Maestro software in order to compare different samples.

[4] = system: H322M (low surface Her2) and KPL4 (high surface Her2) cells; test: CytoTox-Glo assay of DIG-peptide-<Her2>-<Dig> complexes; format: cell-based, human; conditions: 48 hours
Description: To analyze whether the <Her2>-<Dig>-Dig-Peptide complexes, and <IGF1R>-<Dig>-Dig-Peptide complexes mediate specific targeting of their payload towards antigen expressing cells, we made use of the fact that the FALLv1 and Fam5b peptides are cytotoxic. […] To measure the number of dead cells, the CytoTox-Glo assay (Promega Madison, Wis.) was used. To analyze the specificity of the targeting, two cell lines were used: H322M which have low levels of surface Her2 and KPL4 which have high levels of surface Her2.
For these assays, H322M cells were seeded at a density of 15.000 cells per well in 96 well plates. The cells were incubated for 24 hours at 37° C., 5% CO2 and 85% humidity in RPMI with 10% FCS, Na+Pyrovate, L-Glutamine and NEAA mix. KPL4 cells were seeded at a density of 7.000 cells per well in 96 well plates. The cells were incubated for 24 hours at 37° C., 5% CO2 and 85% humidity in RPMI with 10% FCS, and L-Glutamine. […] The cells were incubated for further 48 hours. After this period, the cells were treated with the CytoTox-Glo-assay reagent according to the manufacturers instructions. In brief, this assay detects dead cells via the presence of a protease in the medium that cleaves a flurogenic peptide in the reagent. The luminescence of this assay therefore represents dead cells. The 96 well plates were then analyzed in a InfiniteF200 luminescence reader (Tecan Austria, Gröding).

[5] = system: DIG-Myoglobin; test: SPR study, binding to DIG-myoglobin
Protocol: (§1) For that, binding properties of the recombinant <Dig> derivatives were analyzed by surface plasmon resonance (SPR) technology using a Biacore T100 or Biacore 3000 instrument (GE Healthcare Bio-Sciences AB, Uppsala). This system is well established for the study of molecule interactions. It allows a continuous real-time monitoring of ligand/analyte bindings and thus the determination of association rate constants (ka), dissociation rate constants (kd), and equilibrium constants (KD) in various assay settings. SPR-technology is based on the measurement of the refractive index close to the surface of a gold coated biosensor chip. Changes in the refractive index indicate mass changes on the surface caused by the interaction of immobilized ligand with analyte injected in solution. If molecules bind to immobilized ligand on the surface the mass increases, in case of dissociation the mass decreases. To perform the binding studies capturing anti-human IgG antibody was immobilized on the surface of a CM5 biosensor chip using amine-coupling chemistry. Flow cells were activated with a 1:1 mixture of 0.1 M N-hydroxysuccinimide and 0.1 M 3-(N,N-dimethylamino)propyl-N-ethylcarbodiimide at a flow rate of 5 μl/min. […] A reference control flow cell was treated in the same way but with vehicle buffers only instead of the capturing antibody. Surfaces were blocked with an injection of 1 M ethanolamine/HCl pH 8.5. To compare the binding of the humanized protein variants with that of the murine <Dig> IgG from the original hybridoma 19-11, capturing anti-mouse IgG antibody was immobilized on the surface of a CM5 biosensor chip in the same fashion as described above for the anti-human IgG antibody. To evaluate the functionality of the recombinant <Dig> derivatives, binding of the recombinant hu<Dig> modules, incl. […]

[6] = target: siRNA-(2x)DIG (Eg5-siRNA-(2×)DIG); test: SPR (Biacore) binding to bi-digoxygenated siRNA; conditions: 25° C.
Protocol: (§2) For that, binding properties of the recombinant <Dig> derivatives were analyzed by surface plasmon resonance (SPR) technology using a Biacore T100 or Biacore 3000 instrument (GE Healthcare Bio-Sciences AB, Uppsala). […] It allows a continuous real-time monitoring of ligand/analyte bindings and thus the determination of association rate constants (ka), dissociation rate constants (kd), and equilibrium constants (KD) in various assay settings. SPR-technology is based on the measurement of the refractive index close to the surface of a gold coated biosensor chip. Changes in the refractive index indicate mass changes on the surface caused by the interaction of immobilized ligand with analyte injected in solution. If molecules bind to immobilized ligand on the surface the mass increases, in case of dissociation the mass decreases. To perform the binding studies capturing anti-human IgG antibody was immobilized on the surface of a CM5 biosensor chip using amine-coupling chemistry. […]
(§3) Anti-mouse IgG antibody was immobilized on the surface of a CM5 biosensor chip in the same fashion as described above. […] The samples to be analyzed were diluted in HBS-P (10 mM HEPES, pH 7.4, 150 mM NaCl, 0.005% Surfactant P20) and injected at a flow rate of 5 μl/min. […] Signals were detected at a rate of one signal per second.
(§4) The samples to be analyzed were diluted in HBS-P and injected at a flow rate of 5 μl/min. […]

[7] = system: DIG-siRNA2349; test: SPR study, binding to DIG-siRNA2349; conditions: analyte DIG-siRNA2349; listed as <DIG>M-19-11
Protocol: as §1, with “antibody.” for “antibody. Surfaces were blocked with an injection of 1 M ethanolamine/HCl pH 8.5. To compare the binding of the humanized protein variants with that of the murine <Dig> IgG from the original hybridoma 19-11, capturing anti-mouse IgG antibody was immobilized on the surface of a CM5 biosensor chip in the same fashion as described above for the anti-human IgG antibody. To evaluate the functionality of the recombinant <Dig> derivatives, binding of the recombinant hu<Dig> modules, incl.”

[8] = target: siRNA-DIG (Eg5-siRNA-DIG); test: SPR (Biacore) binding to mono-digoxygenated siRNA; conditions: 25° C.
Protocol: as §2, §3, §4

[9] = analyte DIG-Myoglobin, listed as <DIG>M-19-11

With `CCN1c2ccc(S(=O)(=O)O)cc2C(C)(C)C1/C=C/C=C/C=C1\N(CCCCCC(=O)NCCNC(=O)CO[C@H]2CC[C@@]3(C)[C@H](CC[C@@H]4[C@@H]3C[C@@H](O)[C@]3(C)[C@@H](C5=CC(=O)OC5)CC[C@]43O)C2)c2ccc(S(=O)(=O)O)cc2C1(C)C` (stereo partly drawn) [Dig-Cy5] the “Emission wavelength (max.)” value [1] was 670 nm, the “binding to Raji or Ramos cells (FACS)” value [2] was “hardly any binding” and the “tumor visualization by NIRF” value [3] was “no tumor specific fluorescence”.

For `CC[C@H](C)[C@H](NC(=O)[C@H](CCCCN)NC(=O)[C@H](CCC(=O)O)NC(=O)[C@H](CCCCN)NC(=O)[C@H](CO)NC(=O)[C@H](CCCCN)NC(=O)[C@H](CCCNC(=N)N)NC(=O)[C@H](Cc1ccccc1)NC(=O)[C@H](Cc1ccccc1)NC(=O)[C@H](CC(=O)O)NC(=O)CNC(=O)[C@H](CC(C)C)NC(=O)[C@H](CC(C)C)NC(=O)[C@H](C)NC(=O)[C@H](Cc1ccccc1)NC(=O)[C@@H](N)CSC1CC(=O)N(CCNC(=O)CO[C@H]2CC[C@@]3(C)[C@H](CC[C@@H]4[C@@H]3C[C@@H](O)[C@]3(C)[C@@H](C5=CC(=O)OC5)CC[C@]43O)C2)C1=O)C(=O)NCC(=O)N[C@@H](CCCCN)C(=O)N[C@@H](CCC(=O)O)C(=O)N[C@@H](Cc1ccccc1)C(=O)N[C@@H](CCCCN)C(=O)N[C@@H](CCCNC(=N)N)C(=O)N[C@H](C(=O)N[C@H](C(=O)N[C@@H](CCC(N)=O)C(=O)N[C@@H](CCCNC(=N)N)C(=O)N[C@H](C(=O)N[C@@H](CCCCN)C(=O)N[C@@H](CC(=O)O)C(=O)N[C@@H](Cc1ccccc1)C(=O)N[C@@H](CC(C)C)C(=O)N[C@@H](CCCNC(=N)N)C(=O)N[C@@H](CC(N)=O)C(=O)N[C@@H](CC(C)C)C(=O)N[C@H](C(=O)N1CCC[C@H]1C(=O)N[C@@H](CCCNC(=N)N)C(=O)N[C@H](C(=O)N[C@@H](CCC(=O)O)C(=O)N[C@@H](CO)C(N)=O)[C@@H](C)O)C(C)C)[C@@H](C)CC)C(C)C)[C@@H](C)CC` (stereo partly drawn) [Dig-FALLv1], the “cytotoxicity when delivered by the <Her2>-<Dig> bispecific antibody, H322M compared to KPL4” value [4] was “more toxic to cells expressing higher levels of surface antigen”.

With `CC[C@H](C)[C@H](NC(=O)[C@H](CCCCN)NC(=O)[C@H](CCC(=O)O)NC(=O)[C@H](CCCCN)NC(=O)[C@H](CO)NC(=O)[C@H](CCCCN)NC(=O)[C@H](CCCNC(=N)N)NC(=O)[C@H](Cc1ccccc1)NC(=O)[C@H](Cc1ccccc1)NC(=O)[C@H](CC(=O)O)NC(=O)CNC(=O)[C@H](CC(C)C)NC(=O)[C@H](CC(C)C)NC(=O)[C@H](C)NC(=O)[C@@H](N)Cc1ccccc1)C(=O)NCC(=O)N[C@@H](CCCCN)C(=O)N[C@@H](CCC(=O)O)C(=O)N[C@@H](Cc1ccccc1)C(=O)N[C@@H](CCCCN)C(=O)N[C@@H](CCCNC(=N)N)C(=O)N[C@H](C(=O)N[C@H](C(=O)N[C@@H](CCC(N)=O)C(=O)N[C@@H](CCCNC(=N)N)C(=O)N[C@H](C(=O)N[C@@H](CCCCN)C(=O)N[C@@H](CC(=O)O)C(=O)N[C@@H](Cc1ccccc1)C(=O)N[C@@H](CC(C)C)C(=O)N[C@@H](CCCNC(=N)N)C(=O)N[C@@H](CC(N)=O)C(=O)N[C@@H](CC(C)C)C(=O)N[C@H](C(=O)N1CCC[C@H]1C(=O)N[C@@H](CCCNC(=N)N)C(=O)N[C@H](C(=O)N[C@@H](CCC(=O)O)C(=O)N[C@@H](CO)C(N)=O)[C@@H](C)O)C(C)C)[C@@H](C)CC)C(C)C)[C@@H](C)CC` [FALLv1] the “cytotoxicity of the <Her2>-<Dig> complex towards antigen expressing target cells compared to non-complexed peptide” value [4] was “higher”.

In the case of `CC[C@H](C)[C@H](NC(=O)[C@H](CCCNC(=N)N)NC(=O)[C@H](Cc1c[nH]cn1)NC(=O)[C@@H](NC(=O)[C@H](CCCCN)NC(=O)[C@H](CCCCN)NC(=O)[C@H](Cc1ccccc1)NC(=O)[C@H](CC(C)C)NC(=O)[C@@H](NC(=O)[C@H](CCCCN)NC(=O)[C@H](CC(C)C)NC(=O)CNC(=O)[C@H](C)NC(=O)CNC(=O)[C@H](CC(C)C)NC(=O)[C@H](CCC(N)=O)NC(=O)[C@H](CCC(N)=O)NC(=O)[C@H](Cc1ccc(O)cc1)NC(=O)[C@H](CCCNC(=N)N)NC(=O)[C@H](Cc1c[nH]cn1)NC(=O)[C@@H](N)CCC(N)=O)C(C)C)[C@@H](C)O)C(=O)N[C@@H](CC(C)C)C(=O)N[C@@H](CCCNC(=N)N)C(=O)N[C@@H](CCCNC(=N)N)C(=O)N[C@@H](CC(C)C)C(=O)N[C@@H](Cc1ccccc1)C(=O)N[C@@H](CC(N)=O)C(=O)N[C@@H](CC(C)C)C(=O)N[C@@H](C)C(=O)N[C@@H](CCCCN)C(=O)O` [Fam5b] (H-QHRYQQLGAGLKVLFKKTHRILRRLFNLAK-OH), the “cytotoxicity of the <Her2>-<Dig> complex towards antigen expressing target cells compared to non-complexed peptide” value [4] is reported as “higher”.

For Cy5 [reference compound], the “Emission wavelength (max.)” value [1] was 670 nm.

For “DIG-Fam5b: digoxigenin conjugate of Fam5b with TEG-spacer and amino-terminal cystein (C[PEG3]QHRYQQLGAGLKVLFKKTHRILRRLFNLAK; also: digoxigenin conjugate, attachment site not given here)”, the “cytotoxicity when delivered by the <Her2>-<Dig> bispecific antibody, H322M compared to KPL4” value [4] was “correlates with the levels of surface antigen”.

B1: murine DIG-IgG 19-11: murine <Dig> IgG1 kappa from mouse hybridoma clone 19-11; VL Seq. ID. NO. 1, VH Seq. ID. NO. 2 (antibody, listed as Mus musculus, V domains shown)
VH: MNFVLSLIFLALILKGVQCEVQLVESGGGLVKPGGSLKLSCAVSGFTFSDYAMSWIRQTPENRLEWVASINIGATYAYYPDSVKGRFTISRDNAKNTLFLQMSSLGSEDTAMYYCARPGSPYEYDKAYYSMAYWGPGTSVTVSS
VL: MSSAQFLGLLLLCFQGTRCDVQMTQSTSSLSASLGDRVTISCRASQDIKNYLNWYQQKPGGTVKLLIYYSSTLLSGVPSRFSGRGSGTDFSLTITNLEREDIATYFCQQSITLPPTFGGGTKLEIK
notes: murine <Dig> IgG1 kappa from mouse hybridoma clone 19-11; ID; NO
For B1, the “affinity to DIG-myoglobin relative to <DIG>-hu2 and disulfide-stabilized <DIG> scFv” value [5] was “about a hundred fold better”, the ka [5, 9] was 1.75e+06 M⁻¹ s⁻¹ and 2.28e+06 M⁻¹ s⁻¹ and the kd [5, 9] was 0.000676 s⁻¹ and 0.000675 s⁻¹. The Kd [6] was 0.017 nM, the ka [7] was 3.27e+06 M⁻¹ s⁻¹ and 2.26e+06 M⁻¹ s⁻¹ and the kd [7] was 0.000903 s⁻¹ and 0.000838 s⁻¹. The Kd [8] was 0.269 nM.
